Assay results reported in paper PMC5869385.

Biological target: Torpedo muscle-type α1_(2)β1γδ nicotinic acetylcholine receptor (Torpedo marmorata (endogenous in electric organ)) (UniProt P02711)
Assay: radioligand binding

α-cobratoxin from Naja kaouthia (from UniProt P01391 1-71) (natural protein)
Ki: 0.397 nM
